Results taken from patent US7105305.

Target: type B human PDGF receptor (B-hPDGF-R) on transfected CHO cells (CHO-HR5) (human) (UniProt P09619)
Assay: whole-cell 125I-PDGF binding, 37 C for 45 min, Ficoll gradient; non-specific binding taken from CHO cells

Sequence of type B human PDGF receptor (B-hPDGF-R) on transfected CHO cells (CHO-HR5) (human) (P09619 33-1106 E241D): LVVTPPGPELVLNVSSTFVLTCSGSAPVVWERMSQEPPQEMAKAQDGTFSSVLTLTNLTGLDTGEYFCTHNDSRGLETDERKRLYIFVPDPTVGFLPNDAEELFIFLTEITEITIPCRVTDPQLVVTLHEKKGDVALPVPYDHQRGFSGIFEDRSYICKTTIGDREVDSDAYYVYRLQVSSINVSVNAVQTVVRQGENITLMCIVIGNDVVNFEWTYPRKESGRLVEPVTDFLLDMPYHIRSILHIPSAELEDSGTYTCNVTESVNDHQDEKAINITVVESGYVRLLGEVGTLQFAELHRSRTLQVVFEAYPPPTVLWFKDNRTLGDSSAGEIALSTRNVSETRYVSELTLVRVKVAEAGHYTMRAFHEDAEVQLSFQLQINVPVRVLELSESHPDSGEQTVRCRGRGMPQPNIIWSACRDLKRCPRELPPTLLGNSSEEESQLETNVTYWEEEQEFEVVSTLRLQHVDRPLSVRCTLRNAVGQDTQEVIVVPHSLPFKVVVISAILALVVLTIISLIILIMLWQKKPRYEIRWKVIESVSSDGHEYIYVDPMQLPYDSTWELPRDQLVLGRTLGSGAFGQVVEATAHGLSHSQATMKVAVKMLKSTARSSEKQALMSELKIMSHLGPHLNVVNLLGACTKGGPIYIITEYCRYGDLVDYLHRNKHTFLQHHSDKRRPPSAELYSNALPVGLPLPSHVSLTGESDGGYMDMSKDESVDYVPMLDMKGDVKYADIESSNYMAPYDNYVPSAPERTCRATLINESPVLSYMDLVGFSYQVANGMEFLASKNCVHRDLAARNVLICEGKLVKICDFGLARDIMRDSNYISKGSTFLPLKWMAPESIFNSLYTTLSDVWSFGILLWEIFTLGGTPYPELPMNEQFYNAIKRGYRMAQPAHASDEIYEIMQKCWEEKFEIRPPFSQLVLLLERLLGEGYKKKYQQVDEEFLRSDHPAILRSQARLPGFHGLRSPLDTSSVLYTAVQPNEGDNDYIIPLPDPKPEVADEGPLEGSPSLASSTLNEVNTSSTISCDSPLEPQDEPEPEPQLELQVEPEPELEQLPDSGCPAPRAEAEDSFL

non-specific binding as percent of the bound radioactivity: 25 percent
Substance: ^125I-labeled PDGF (ligand)
